Experiment: soluble on expression in E. coli; label from the status in PepcDB or PDB records

Sequence | soluble on expression in E. coli
MDIAQDWNGIPVPANPGNGMTWQLQDNVSDSFNYTSSEGNRPTAFTSKWKPSYINGWTGPGSTIFNAPQAWTNGSQLAIQAQPAGNGKSYNGIITSKNKIQYPVYMEIKAKIMDQVLANAFWTLTDDETQEIDIMEGYGSDRGGTWFAQRMHLSHHTFIRNPFTDYQPMGDATWYYNGGTPWRSAYHRYGCYWKDPFTLEYYIDGVKVRTVTRAEIDPNNHLGGTGLNQATNIIIDCENQTDWRPAATQEELADDSKNIFWVDWIRVYKPVAVSGGGNNSLEHHHHHH | soluble
MATSKILLYYAFTPLSDPKAVQLWQRELCESLNLRGRILISTHGINGTVGGDIDDCKAYIKKTREYPGFNRMQFKWSEGGAEDFPKLSVKVRDEIVAFGAPDELKVDENGVVGGGVHLKPQQVNELVEARGDEVVFFDGRNAMEAQIGKFKDAVVPDVETTHDFIAEIESGKYDDLKDKPVVTYCTGGIRCEILSSLMINRGFKEVYQIDGGIVRYGEQFGNKGLWEGSLYVFDKRMHMEFGEDYKEVGHCIHCDTPTNKFEHCLNEDDCRELVLMCPDCFANVETRHCKRERCAAIAADFAEQGIDPLVTSLEHHHHHH | soluble
MGSDKIHHHHHHMNFKEALEGIKLVLESKAVPLLVGESGIGKTSLVKKLSKDEEYYYINIDGNLLKEGEIGGLPVVQDYGDEKSLIKKTVYAAYYKFIKIDEILKNNPNQKVLLFIDEINRCEHSVQQEIMNIILNREINGYKLKDNITVIAAMNPSSKYDEFEESDYQVNDMDPAQEDRFVWIYLESDVNNWIEWGHERINGESRIHEDILGFIASFPEYLSTPNSKESIKATPRSWERVSNIYKAYIKKKTKVSRNIFYNLIRGNVGTSIAQDFINYIDESKSPLLTPEDIFANDCISEDIKDRIRKESHSRLFLSAKNILFYLENKEDRSREVEIFSEFLSLYPNDLKLGIMQNIKSDSSKKLYKEFLENTSFLENFFLMYEGIED | not soluble
MIMDLASLRAQQIELASSVIREDRLDKDPPDLIAGADVGFEQGGEVTRAAMVLLKYPSLELVEYKVARIATTMPYIPGFLSFREYPALLAAWEMLSQKPDLVFVDGHGISHPRRLGVASHFGLLVDVPTIGVAKKRLCGKFEPLSSEPGALAPLMDKGEQLAWVWRSKARCNPLFIATGHRVSVDSALAWVQRCMKGYRLPEPTRWADAVASERPAFVRYTANQPLEHHHHHH | soluble
MKNNKDEKIRISIINGFLGSGKTTLLTHYISELLKNDEKIKIIMNEFGTFDIDSNSISNEIEVHSLINGCVCCDLKQELVYELKAIALKGDVNHVIIETTGIAHPLELLVACQDPQIVNFFEKPIIYGVLDATRFLERHQYTENTVSLMEDQLKLSDMIIINKIDLITDDRLERIDKQLGMICASIPTYKTTYGKVSLEELDLTVKDREISSHHHHHHGIKSMTYTFTGPIDRQLFYQFIMKLPESVLRLKGYVSFRDQPNAIYEFQYAYGLPDYGIIGMQLPLTIVIIGETLDTNHIRNQLDMLQFT | not soluble
MGSDKIHHHHHHMKKSTLIDKFLDLLSSRSSLREIQNNFIDANIMRDSSINQKYNGQRKSLAWEYISTLNLEDEAEFSKLLNVIETYLFQWNLYIHEVDEDEEINRLIKIINVLGYEYNKDTGKITKNEREVNLSTIKSLAIKFDIEYVLKECNRIEKEALTDPEDAITSAKSMVESTLKHILDSEGEKFNNNETLRGLYKKVSNIMNLSPGGHNENTFKTILSGMINVINGLDEVRNEYGDAHGKSKKNYRPETRHAFLAINAARTITEFLLASYKK | not soluble
MGSDKIHHHHHHMYLVRNMEHVEPNIDGFKYYCSRFKNHFSFDERLTPWSCPHCKIGRLIAKEENFFCQETLILHSERKPSLQYSGFFICNCCDNKTFSTGTGKNNYYCGGDDETGDFTEMYVNEYTPQFFSPSIMLFNPPASTPQSVRDSLKRAFSICWCDIPASCNVLRVTVEILLKERWPEVPIVINGQNLNKKLNELKKIEASQPKLLEILDYFLAIKWLGNNGSHDAELEERDLAVAFKIMDKALILLYSRDDNSVSEWVRMINAAEGRPIKS | not soluble
ILDTKPIPTIVDATTLGISGNTSGDYWLPTTMSLYQKELTDQIVSLHYSDILRYFETSHYKEDVILESMKTMCLNGSLVATHPYLLIDHYMPKSLITRDVPAHLAENSGKFSVLRDLINLVQEYETETAIVCRPGRTMDLLEALLLGNKVHIKRYDGHSIKSAAAANDFSCTVHLFSSEGINFTKYPIKSKARFDMLICLDTTVDTSQKDIQYLLQYKRERKGLERYAPIVRLVAINSIDHCRLFFGKKFDKNSREYLENVTAAMVILRDRLGTLPPDLRPIYSQKLHYLVEWLENPTVPWPLPDIYPLKQYTSMDVERSLLTEVHFK | soluble
MLMIKVVCGKKGSGKTRALVDSANSFVSTALGDAVFIDGSSQLMCDLHHKVRFINVSEFPIDISSSCTFLGFLCGIISSNFDVKWVYMDDLIRIVRKPPHEMKELFDGFNELSEKFNVDFYVSIEGDPDSMPDFIKVCY | not soluble
MTEHNHDSQLEINNEEELLTLFDEEGNEVLYRKVLEFYHPEFKKEYVILAEEGAQSDEDDMIELVPMINEPDESGDGGKLVPIETDEEWDMIEEVVNTEMEELEHHHHHH | not soluble
MRRRSNRQYVDLSYFRETADALLFDVETNSREFTNEINTVKEEKAKWDERTPQGYTAKPISFEGADIWCSWICTVPGPRGSPWEGGEYEVSVNFHKWPIIPPICEFKTPLHHPNVDLRGSIYLKMLEQEHWSSETSLKKLLREISNLLATPDLTQAANIEAWMEYENQRENYEAKARAYAWTVNPNAVGYMEVSENSGIQRETAKAKLAVQNGAMESDEDDDDLPIDIEN | not soluble
MPLTPADVHNVAFNKPPIGKRGYNEDEVDQFLDLVEDALVQFQEENEDLKQQVEELEAQVAGGTSSAASSSTAGAATAAASKSVDEAALRKEIEEKLRSEYASKLDDASKAAQKAQNDAKSAQDQLQRAQADAKAARDEAEKAKAEAKSAASSSTTKAAAVGAVGAGTGAAVATGAANVDTHMQAAKVLGLAQEMADRLTSEARSESKSMLDEAREAAEKQIEEANSTSNRTLEDARANAEKQIAEAQNRADTLVNEADAKAKNLVSEAEKKSAATLAASTSRAEAQIRQAEDKANALQADAERKHTETMAAVKEQQNALETRIAELQTFEREYRTRLKSLLEGQLEELNARGSSAPTNNKPSGE | not soluble
MSSKGSVVLAYSGGLDTSCILVWLKEQGYDVIAYLANIGQKEDFEEARKKALKLGAKKVFIEDVSREFVEEFIWPAIQSSALYEDRYLLGTSLARPCIARKQVEIAQREGAKYVSHGATGKGNDQVRFELSCYSLAPQIKVIAPWRMPEFYNRFKGRNDLMEYAKQHGIPIPVTPKNPWSMDENLMHISYEAGILENPKNQAPPGLYTKTQDPAKAPNTPDILEIEFKKGVPVKVTNVKDGTTHQTSLELFMYLNEVAGKHGVGRIDIVENRFIGMKSRGIYETPAGTILYHAHLDIEAFTMDREVRKIKQGLGLKFAELVYTGFWHSPECEFVRHCIAKSQERVEGKVQVSVLKGQVYILGRESPLSLYNEELVSMNVQGDYEPTDATGFININSLRLKEYHRLQSKVTAK | not soluble
MSSSTKTLSQTYGPRPQSFSLDEAGERYYIGSEIGAYLRLHRGTLYKKYPLLWRKVATSDDKDKLKQIAMSNAFLHTNIMLLRAHEVDELLDGSEEKYRAAGAAPSTPRTEGASRTVAKTPATGWAGQQVTSGSHHLESVPCSCPIAHSRGRMKHRELVYSAEDLEMSKRVMKNAEEGEDLVPIRLDMELDGIKLRDTFTFNKNEKMITPEMIAEIMCEDLDLPLAVFQPAITAAINQQLEASTEAPPLDVNICDQRAVLKLNINVGNQSLVDQFEWDMSDPNNSPEEFSRNICKELGLGGEFMSGIAYSIRGQLQWNQRTYAFSESPLATVDCPFRTSSEVESWGPFLETLTDAEIEKKMRDQDRNTRRMRRLVGGGFNY | not soluble
MESVESAARDYRETLAELRNNNKTQINLLTILADDFKKAAPQIVEVIERHLTTCSPSQKLLVMYVCDSILKNVKKPNDYDALFARKIVSMFEHAFRQGDERIRTSLYRIRVTWASTTLFMPSKLYELDMKINKLDPNWPISNPQTGRALRDDPQVMAPSQSRPAGNATSPAASTSTNRVFVNPKFIGSSTPGAASASKTVVEKTKSPGTVNKEKQVKKEPKQDPLDKLLPSSSASKTSSSPAGLKRKSAPSEHPNAPIRKKPQQPPKPQTAIDEDLRSISLTKKPPVPSAQDQDFRPKTLKPTSVIGSHAFAPVAAPIRPMIPVPPPVSVAPFVPAPPLSSAPPFQHPQQHHPQLPPPPVHQGMGRGYHHNSPPQDPAPIVPVQAPPPQQHLPAPENVYSSEQPKLDVPANNRIFVDGKAYEVMFVDDTAVIERGGAPHRIYFAGPPRNLVIDGIPHLLQFDTPTQIDILGSKHMVKFGAPSRELYIGGHPFKGQFGGPPIIATINGRRHEIRLTGSAPEVRIEPEPAYHLTHFLHKMREEKKIEIASEKPEKKEDWLSYLKNLRTRNILPAPARSPSSPRNQTPPPANLPIPGMNNAGQRGGYHNRHQPQQNARWGGANKQQNIPPPPSDPSPIGSGVEKRSAPPAAITDFNIRLLQIRYDSVVDALITKRADACKFCGMRLDDSQGKSKEWQDHMDWHVKQNLARHGSNNSAAVPYRQWYPSTSTWLTPRASDETNEQEADKPEEPLPGVASSGVKTKECSVCGEKFDEYYDDDEETWRLRDTVNVHGKIVHSACASDAARSLDNSSFFNDSDIKKEEPFD | not soluble
MSYGLIIVLMIILGIGLWHTKKYHRAVVNQVAHVWITKNAFEHTALGMAIVSPDCRFLKVNRAYGEITGYTRPELLKMAVKELTHPEDQEKDTPYLQEVFAGNIHSFTTVKRYIHKNGSTIWVRSTISAVRTERGNLKYFVLEHHHHHH | not soluble
MGSDKIHHHHHHMGKLSLAAKITHVPSMYLSELPGRHHGCRAEAIRGHQAIGERCRALGVDTIVVADTHWLVNAGYHVNCNGHFAGVYTSNELPHFIRDMRYEYPGNPALGHLIAASANERGIGTRAHEIDSLELEYGTLVPMRYMNADQRFKVVSIAGWCMWHALDESRRFGEALRHAIDASDANVAFLASGSLSHRFNDNGSPEEAIHMISREFYRQVDLRVVELWKQGDFATFCKMLPEYNAHCHGEGGMHDTAMLLGLLGWDRYDKPVEIVTDYFASSGTGQINAIFPLP | not soluble
MSLNLVSLRVITDDVARLVGFYERATGLRATWATEDFAELRTPSGTLAIGSTRTVPLFAPGSARPADNRSVIVEFLVDDVDAVHRNLTGFVDEFVREPTTMPWGNRALLFRDPDGNLVNFFTPVTEGHHHHHH | not soluble
GPLGSLGRRWGPNVQRLACIKKHLRSQGITMDELPLIGGCELDLACFFRLINEMGGMQQVTDLKKWNKLADMLRIPKTAQDRLAKLQEAYCQYLLSYDSLSPEEHRRLEKEVLMEKEILEK | soluble
MRLRLLSLPFILSLCAPLLPLNTLAAERIVTIGGDVTEIAYALGAGDEIVARDSTSQQPQAAQKLPDVGYMRTLNAEGILAMKPTMLLVSELAQPSLVLTQIASSGVNVVTVPGQTTPESVAMKINAVATALHQTEKGQKLIEDYQQRLAAVNKTPLPVKVLFVMSHGGLTPMAAGQNTAADAMIRAAGGSNAMQGFSRYRPLSQEGVIASAPDLLLITTDGVKALGSSENIWKLPGMALTPAGKHKRLLVVDDMALLGFGLETPQVLAQLREKMEQMQ | not soluble
ANSMLKGKVALVTGASRGIGRAIAKRLANDGALVAIHYGNRKEEAEETVYEIQSNGGSAFSIGANLESLHGVEALYSSLDNELQNRTGSTKFDILINNAGIGPGAFIEETTEQFFDRMVSVNAKAPFFIIQQALSRLRDNSRIINISSAATRISLPDFIAYSMTKGAINTMTFTLAKQLGARGITVNAILPGFVKTDMNAELLSDPMMKQYATTISAFNRLGEVEDIADTAAFLASPDSRWVTGQLIDVSGGSCL | soluble

— the DeepSol protein solubility set
